Measured values reported in the DeepSol protein solubility set.

assay: soluble on expression in E. coli; label from the status in PepcDB or PDB records

Row | Sequence | soluble on expression in E. coli
1 | MTTHTGGCQCGAVRFRATGDLQDSSICHCRMCQKAFGAYYAPLVSVRNVEFEWTRGEPKRFQSSSVVKRGFCPECGTPLTYEAPDGVAVAAGAFDDPAALPPTIQWGVERKIDFVDTLHTLPAVATEDDLTQVDYLTNLVSYQHPDHDTENWPPEKR | not soluble
2 | NNNRAPKEPTDPVTLIFTDIESSTALWAAHPDLMPDAVAAHHRMVRSLIGRYKCYEVKTVGDSFMIASKSPFAAVQLAQELQLCFLHHDWGTNALDDSYREFEEQRAEGECEYTPPTAHMDPEVYSRLWNGLRVRVGIHTGLCDIRHDEVTKGYDYYGRTPNMAARTESVANGGQVLMTHAAYMSLSAEDRKQIDVTALGDVALRGVSDPVKMYQLNTVPSRNFAALRLDREYFD | soluble
3 | DGDRLRQFLENNKKVLRFWCVWDERTTMYGDRRPYVLHYYLEDDSVEVLEINENNSGRDPFPVFLKRGPLPKVAVKTNTTLNPKFRKDQCYNAGDFRLGLFINVLGRDFYLHDADTFTKQWYKDNLGYTDEE | not soluble
4 | LAAGPALSARGYLALNGQTPAGCSLMEWQNDNNGRQRWCVRLVQGGGFAGPLFDGFDNLYVGQPGAIISFPPTQWTRWRQPVIGMPSTPRFLGHGRLLVSTHLGQLLVFDTRRGMVVGSPVDLVDGIDPTDATRGLADCAPARPGCPVAAAPAFSSVNGTVVVSVWQPGEPAAKLVGLKYHAEQLVREWTSDAVSAGVLASPVLSADGSTVYVNGRDHRLWALNAADGKAKWSAPLGFLAQTPPALTPHGLIVSGGGPDTALAAFRDAGDHAEGAWRRDDVTALSTASLAGTGVGYTVISGPNHDGTPGLSLLVFDPANGHTVNSYPLPGATGYPVGVSVGNDRRVVTATSDGQVYSFAP | not soluble
5 | MGSDKIHHHHHHMARYRVHVNDPLDKEATQLLMNKEELEVTSEHLEKDELMKIIPEVDVLVVRSATKVTADIIEAGKNLKIIARAGIGLDNIDVQKAKEKGIKVLNTPGASAPSVAELAMGLMLACARHIARATVSLKEGKWEKKALKGKELLGKTLGLIGFGNIGQEVAKRALAFGMKIIAYDPAKPETDLPVEYVDLDTLFKESDFISLHVPLTESTRHIINRESIAKMKDGVIIVNTARGGTIDEEALYEEVVSGKVYAAGLDVFEVEPPTDEIRRKLLSLDNVVATPHIGASTAEAQRRVGIELVEKIFKELGI | not soluble
6 | MTTTDKQLLYVRTEMTIPGVGTSIHIAELEPTSTTHCTLHRILELDPSNTIRGAAHGNAVAGMAAAPERTVPHPNSYANFPDITATHLLQEEFEVLWAEAVAKFSELR | not soluble
7 | SDRLIDKMAGEERQKIELWAQATKIVASDDEAVLAKDLVLQIIQSNNSIPVILCDPKDSIISYNNIDIPAGKPALPYLQKKLRYFKEGYPPIRIEIEARRPQFLYYSDSQTLRR | not soluble
8 | MNELVDTTEMYLRTIYDLEEEGVTPLRARIAERLDQSGPTVSQTVSRMERDGLLRVAGDRHLELTEKGRALAIAVMRKHRLAERLLVDVIGLPWEEVHAEACRWEHVMSEDVERRLVKVLNNPTTSPFGNPIPGLDELGVGPEPGADDANLVRLTELPAGSPVAVVVRQLTEHVQGDIDLITRLKDAGVVPNARVTVETTPGGGVTIVIPGHENVTLPHEMAHAVKVEKV | soluble
9 | MSLNEKVALVTGASRGIGFEVAHALASKGATVVGTATSQASAEKFENSMKEKGFKARGLVLNISDIESIQNFFAEIKAENLAIDILVNNAGITRDNLMMRMSEDEWQSVINTNLSSIFRMSKECVRGMMKKRWGRIISIGSVVGSAGNPGQTNYCAAKAGVIGFSKSLAYEVASRNITVNVVAPGFIATDMTDKLTDEQKSFIATKIPSGQIGEPKDIAAAVAFLASEEAKYITGQTLHVNGGMYMA | soluble
10 | MEVDCRVISRGKGRGPVLVSTEPLSFLGGVDPGTGRVIDQKHPLHGRSIRGKVLLIPGGKGSTVGSYVIFQMAKNETAPAAIICLNAEPIIATGAIMAGIPMVDRPSEDLLGLLEDSMEVEVDADEGKIRF | soluble
11 | MGSDKIHHHHHHMRITNTLTGKKEEFVPIQPGVVRMYVCGPTVYDLIHVGNARPALVFDVFRRYLEYRGYRVIMVQNFTDIDDKIINKANQLGVDYKTVADTFIAEYWRDAHALGIRPANFHPRTTDFVEDIVEIIEKLVEKGFAYQTETGVYFDVRKFEKYGELSKKKIEDLIAGARVEVDETKKSPLDFSLWKKAKPGEPCWKSPWGEGRPGWHIECTVMSVKILGESFDIHAGGEDLVFPHHENEKAQAEALTGKVFARYWMHNGMVRFLGDKMSKSTGNIFTVREAVKRYGRDGLRYMILSKHYRSPMDFSEELLQDYSRAVKRVWEILGRYEKSGDIGIPKRNAVYEEYVNRFVEALDDDFNTPVAVSLIFELARNLSKAMDDNDREDALLYYHLIRREFGPVLGLFDLNEEKKEVSSEELLKLLIEVRDVLRKEKRYDLSDRIRDRLREIGIILKDTPSGTEYTVE | not soluble
12 | MSSIQGYKMKEYSMPTKRYCQTLSLKNNPILIEEYRKIHSEEKAWPEIRAGIRAVGILEMEIYILGSQLFMIIETPLDFDWEIAMDKLSNLPRQAEWEKYVSKFQDCPYLSSSAEKWKLMERMFYLYED | not soluble
13 | MSLIQTIENRLINGGELTLEEALLLASSADKEALYEAAHRITRYFMGDKFDTCSIINAKSGNCPEDCKWCAQSRHYAASIEKYGLLSAAVCAEQAAYNRRQGIGRFSLVASGRTASMNEIRQMAESYRAIKQRTDIKCCASLGLLSEEKLQILFDNGVTTYHCNMETAPSFFPSLCSTHTQDEKLATIRAARRVGMRVCSGGIIGMGETMEQRIEFAFYLHSINVYSIPINILQPIPGTPLERTLPLSEEEYLTTVALFRLINPRAFLRFSGGRAQLSPAVQRKAIYIGINAAITGDLLTTTGSKAAEDMQLVRECGFQVTNDTDWEVSYDHEGHHHHHH | not soluble
14 | SSTTTGPEAAPKPSAKSIYEQRKRYSTVVMADVSQYHVNHLVTFCLGEEDGVHTVEDASRKLAVMDSQGRVWAQEMLLRVSPSQVTLLDPVSKEELESYPLDAIVRCDAVMPRGRSRSLLLLVCQEPERAQPDVHFFQGLLLGAELIREDIQGALQNYRSGRGERRAAALRATQEELRRGASPAAETPPLQRRPSVRLVINTVEPSAVRGRPQVESIPETEEARKPDQARTTSSADPTSPDLGPRGPELAGLQAERDVDILNHVFDDVESFVSRLQKSAEATRVLEHRERGRRTRRRAAGEGLLTLRAKPPTEAEYTDVLQKIKYAFSLLARLRGNIANPSSPELLHFLFGPLQMIVNTSGGPEFAKSVRRPHLTLEAVTLLRDNVTPGENELWTSLGDSWTCPGVELPPEEGSPYSPEFYNGWEPPATDPQGRPWEDPVEKQLQHEKRRRQQSAPQVAVNGKIQNWKLSPS | soluble
15 | MGSDKIHHHHHHCNNSNTKDNDKLFIGNGKFCQAKRLNGLGAIYDDDYIFFDCENQIYESYNYSNKKNDKKLNVNCRNSACSHNNDKCEAYVELGEYFVFNSKIYKYYNKSKVVSGENRLYGSIVEEESGKTVFKNSIPTDMSSELAIDDSEAILYVRVLSDDIIKVDGDRHAYLLDKNFNIIYCHYNIGKFPWGAILNGNYYYINDINEIVKVNLTTFESKSIASNGKAFMADNDENFIYYSNEFSELYKLSPDDESSIKIADNALFFSVQNKYIYASGGDNGNKIIYDKNGKIIADYSACVNMGADSAFQINDKIYTIFNGGVAYMDLDGKNYGEMMQ | not soluble
16 | RWETHVYRAVKDLLVGLGFTEVLQLVLTSPRLVEAAGFSSMAVEVLNPVQQEYSVLRPTLLITLLQTLRENQHRRKPVKVFEAGNAVYLEDGEPRDEEKLALGVLDEEAGFEDVQAPLYAVLRIMGVDFEVEEASHPMFMEGRTAAVKVGGERLGYIGEVKPEVLEAFGLEYPVAAAEISLEVLARWTS | soluble
17 | MIEVKPETPDDWWEVEALYDLCFAPGRTALSSYRLRDDVPPVAGLSLVARDSDGTLAGAIRFWPVHVGDLDALLLGPVAVHPTHQGEGLGGFLIQEGLEAGREGGWARVMLVGDAPYYSRFGFARLEGVEMPPPTNPDRVLGLEL | not soluble
18 | MGSDKIHHHHHHSQGKQISGSSNYITKNIKVGSFDQIKSMSSSDIVYTQKQGAPTVQIYGPDNIVELMETSVSGRTLTIKFKKNTSIRNSGKLEIRVSSPSLKHLSIYGSGNTTFTNGIKSHDELQMSIYGSGNISGNSFSCTKLAARIYGSGNVNLKRISTSDTQVNISGSGNVLLDGKSTEAEYHIAGSGDINATELKVENVNARISGSGSIRCYATENLTGGVSGSGNVAYKGNPQINFSKRGLQKL | not soluble
19 | SQIPASEQETLVRPKPLLLKLLKSVGAQKDTYTMKEVLFYLGQYIMTKRLYDEKQQHIVYCSNDLLGDLFGVPSFSVKEHRKIYTMIYRNLVVVNQQESSDSGTSVSENHHHHHH | soluble
20 | MVPTTPFTIENTPVGRGNSGARSHKEPSAKRKKPTSTPTVRCGTVPQEPSTSAATVTQKPAGSTMATANITETRRIDISSCSDRPLIPCTASGVPLTTFSNKSLDSILNQDSEIVGGISQKDLNELRNRGPNMTVKQLLAKNFKNYKVRQSLTSELATEFVNRTLSENDVPMGALIMPPMEDVQESIVKESKTYNYAAASGGSLPFSNPHSEGILIRSPAIKGPHTLRDVLDSLGSVGTPAANQTLKDVLGSFNSQQPIDPTPSKTLKDVLGSLDLDNDYDLKLKMEGLDHDLKVESPTDAELGLDEFANQILSSKYKGTSLDTDHTAYPGNHLPWPVLWKNPVPKYIQGEIYCYVDGCTYSPMSEIIKSGKFMVPLDHPVEFIFKDRPILVTMEELLTANGINMSKAQHYRMLQGLLQKSGVHIRADYAERLHEFQALMDGLEIEDKPRPALKLSSDKLPLMCIYPDIYMNALGRRIHGAVIVDSSGVQETIGTRTLITRHQIAEFLLENPESPDSPDITTAPSKNSTIGDMMRPKSKIRRTHYVDLNKMVWRHFKDCQAAGIQINGKQLKDQAMRYAKDMGLESFRGSEGWLDAFKRRHRIDLKSMTGYPVCYENDMYEEVDKECRELDMESHMLHQQPPSFFPQSAPDEFAASFFSSLSGFPQQMVVQEPPTTSSSNHLQNMINSMMTPPVVDSRMMPSTSSAGASGASASSQEPDGGGDTIFNVMRSCQIKVADKEVSHALDTLRTYILEHDPAAMSLLVPLQERLATTSSGAIGRDMPSTSSSS | soluble
21 | MPAHSLFSLSVSAALLLSAVPLPAQSAGWKPAEQIKTYAISGNTGGGLYQSIGERGPTAGVQAIAHTTFKLTWRRDYRPQPDGACVLVTARPNLTIIYTWPKAPSNLPPAVAASWKTFISGVETHERVHGEHILDMVKKIEAFSTGLRAENDPKCQKVRVVLQQRLGELSNEQRQRGRDFDRDELSPGGRVHQLILTLANGP | soluble
22 | MTATPVLALSEFQGAPAPIAGEQNAAPGDEAEEAAPEERTPLEIPMPDPLVDRTAVELKDDEIAAPDVVEPVEVLTDVSKIPVPVARMRELIVEAAASGDIERLRPLLGKGPTQTQVTATAGEDDPIAALKSLSGDQDGIEILAILLDVMSTGFVLADKGTPEEAYVWPYFAEKPLSSLTAPEKVDLFRLVTAGDFAGMEEFGTYNFYRVGITPDGKWKFFVAGD | not soluble
23 | MLIVGEDFGMRVSVLASSSSGNATYIETPGHKVLVDAGLSGKKIETLMQSIGRDLTDVDSVFITHEHSDHVRGVGVLARRYPKLSVYANAKTFAALPKSVGKIPEDQLRLFDMGATLTLGDLDVESFGVSHDAAAPQFYQFHHDGKTFTILTDTGYVSDRVAGTIRDADAYVMECNHDLEMLRTGPYPWPLKQRILGDQGHLSNEDGADALMDVIGLRTKRIYLGHLSPHNNNKPLAHLTVASLLAQQGLAVDHDFRIYDTDPAVADPLFVVLEHHHHHH | not soluble
24 | MNKRMKMCPACQQGYLYHSKPKYLHDEIILCDECDAVWLKGMNIFYGEYEKDFYSYVPFMESQGITSECIWEGDLFDHPYYEDENSNDMD | not soluble
